Patent US20200024330A1

Key:
Assay in all cases: cell-based or functional assay
[1] = biological target: HIV-1 APV-13 envelope glycoprotein (Env) on pseudovirus (HIV-1)
[2] = biological target: HIV-1 JR-CSF Env I414A (HIV-1 (isolate JR-CSF)) (UniProt P20871)
[3] = biological target: HIV-1 JR-CSF Env E321aA (HIV-1 isolate JR-CSF) (UniProt P20871)
[4] = biological target: HIV-1 JR-CSF Env N355A (HIV-1 isolate JR-CSF) (UniProt P20871)
[5] = biological target: HIV-1 JR-CSF Env N332A (HIV-1 isolate JR-CSF) (UniProt P20871)
[6] = biological target: HIV-1 JR-CSF Env T297A (HIV-1 JR-CSF) (UniProt P20871)
[7] = biological target: HIV-1 JR-CSF Env T303A (HIV-1 JR-CSF) (UniProt P20871)
[8] = biological target: HIV-1 JR-CSF Env I420A (HIV-1 (isolate JR-CSF)) (UniProt P20871)
[9] = biological target: HIV-1 JR-CSF Env N392Q (HIV-1 (isolate JR-CSF)) (UniProt P20871)
[10] = biological target: HIV-1 JR-CSF Env I323A (HIV-1 isolate JR-CSF) (UniProt P20871)
[11] = biological target: HIV-1 JR-CSF Env Q337A (HIV-1 isolate JR-CSF) (UniProt P20871)
[12] = biological target: HIV-1 JR-CSF Env W395A (HIV-1 (isolate JR-CSF)) (UniProt P20871)
[13] = biological target: HIV-1 JR-CSF Env T319A (HIV-1 isolate JR-CSF) (UniProt P20871)
[14] = biological target: HIV-1 JR-CSF Env R327A (HIV-1 isolate JR-CSF) (UniProt P20871)
[15] = biological target: HIV-1 JR-CSF Env D417A (HIV-1 (isolate JR-CSF)) (UniProt P20871)
[16] = biological target: HIV-1 JR-CSF Env R315A (HIV-1 isolate JR-CSF) (UniProt P20871)
[17] = biological target: HIV-1 JR-CSF Env V292A (HIV-1 JR-CSF) (UniProt P20871)
[18] = biological target: HIV-1 JR-CSF Env N386A (HIV-1 isolate JR-CSF) (UniProt P20871)
[19] = biological target: HIV-1 JR-CSF Env S334A (HIV-1 isolate JR-CSF) (UniProt P20871)
[20] = biological target: HIV-1 JR-CSF Env H330A (HIV-1 isolate JR-CSF) (UniProt P20871)
[21] = biological target: HIV-1 JR-CSF Env F210A (HIV-1 JR-CSF) (UniProt P20871)
[22] = biological target: HIV-1 JR-CSF Env G324A (HIV-1 isolate JR-CSF) (UniProt P20871)
[23] = biological target: HIV-1 92RW020 Env (pseudovirus) (HIV-1)
[24] = biological target: HIV-1 MGRM-C-027 Env (pseudovirus) (HIV-1)
[25] = biological target: HIV-1 envelope glycoprotein (Env) of isolate MGRM-Chronic-B-004, on pseudovirus (HIV-1)
[26] = biological target: HIV-1 envelope glycoprotein (Env) of isolate APV_6, on pseudovirus (HIV-1)
[27] = biological target: HIV-1 envelope glycoprotein (Env) of isolate MGRM-Chronic-B-010, on pseudovirus (HIV-1)
[28] = biological target: HIV-1 Env of isolate 92RW020 (HIV-1)
[29] = biological target: HIV-1 Env of isolate MGRM-C-026 (subtype C), on pseudovirus (HIV-1)
[30] = biological target: HIV-1 Env of isolate SC422661.8 (subtype B) (HIV-1)
[31] = biological target: HIV-1 envelope glycoprotein (Env) of isolate MGRM-Chronic-B-023, on pseudovirus (HIV-1)
[32] = biological target: HIV-1 Env of isolate 92RW021 (HIV-1)
[33] = biological target: HIV-1 Env of isolate MGRM-F1-018 (clade F), on pseudovirus (HIV-1)
[34] = biological target: HIV-1 ADA Env (pseudovirus) (HIV-1 ADA)
[35] = biological target: HIV-1 envelope glycoprotein (Env) of isolate MGRM-Chronic-B-018, on pseudovirus (HIV-1)
[36] = biological target: HIV-1 Env of isolate MGRM-C-024 (subtype C), on pseudovirus (HIV-1)
[37] = biological target: HIV-1 Env of isolate MGRM-F1-020 (clade F), on pseudovirus (HIV-1)
[38] = biological target: HIV-1 Env of isolate 92RW026 (HIV-1)
[39] = biological target: HIV-1 Env of isolate 93RW029 (HIV-1)
[40] = biological target: HIV-1 Env of isolate MGRM-F1-008 (HIV-1)
[41] = biological target: HIV-1 Env of isolate MGRM-D-029 (HIV-1)

## b12 (antibody)
[1]
  IC90 (pseudovirus neutralization): > 50 µg/mL

## PGT-121 (antibody)
[2]
  Fold IC50 increase relative to wild-type: 0.5 fold
[3]
  Fold IC50 increase relative to wild-type: 0.3 fold
[4]
  Fold IC50 increase relative to wild-type: 1.4 fold
[5]
  Fold IC50 increase relative to wild-type: > 200 fold
[6]
  Fold IC50 increase relative to wild-type: 0.7 fold
[7]
  Fold IC50 increase relative to wild-type: 0.7 fold
[8]
  Fold IC50 increase relative to wild-type: 3.3 fold
[9]
  Fold IC50 increase relative to wild-type: 0.9 fold
[10]
  Fold IC50 increase relative to wild-type: 1.9 fold
[11]
  Fold IC50 increase relative to wild-type: 1 fold
[12]
  Fold IC50 increase relative to wild-type: 0.5 fold
[13]
  Fold IC50 increase relative to wild-type: 1.3 fold
[14]
  Fold IC50 increase relative to wild-type: 2.5 fold
[15]
  Fold IC50 increase relative to wild-type: 0.7 fold
[16]
  Fold IC50 increase relative to wild-type: 0.9 fold
[17]
  Fold IC50 increase relative to wild-type: 2.7 fold
[18]
  Fold IC50 increase relative to wild-type: 1.3 fold
[19]
  Fold IC50 increase relative to wild-type: > 50 fold
[20]
  Fold IC50 increase relative to wild-type: 0.8 fold
[21]
  Fold IC50 increase relative to wild-type: 1.5 fold
[22]
  Fold IC50 increase relative to wild-type: 16.6 fold

## 4838_L06 (PGT-121) (antibody)
[23]
  neutralization IC80: 0.0188 µg/mL
  neutralization IC90: 0.0361 µg/mL
  neutralization IC95: 0.0671 µg/mL
[24]
  neutralization IC80: 0.0829 µg/mL
  neutralization IC90: 0.374 µg/mL
  neutralization IC95: 3.14 µg/mL

## 1496_C09 (PG9) (TCN-109) (antibody)
[25]
  IC50, pseudovirus neutralization: 0.533 µg/mL
[26]
  IC50, pseudovirus neutralization: 0.181 µg/mL
[27]
  IC50, pseudovirus neutralization: 0.004 µg/mL
[28]
  IC50: 0.141 µg/mL
[29]
  IC50 (µg/mL), pseudovirus neutralization: 0.06 µg/mL
[30]
  IC50 (µg/mL), pseudovirus neutralization: 1.48 µg/mL
[31]
  IC50, pseudovirus neutralization: 0.027 µg/mL
[32]
  IC50: 0.027 µg/mL
[33]
  IC50 (µg/mL), single-round pseudovirus neutralization: 0.019 µg/mL
[34]
  IC50 (ug/ml), neutralization: 0.2 µg/mL
[35]
  IC50, pseudovirus neutralization: 0.216 µg/mL
[36]
  IC50 (µg/mL), pseudovirus neutralization: 0.227 µg/mL
[37]
  IC50 (µg/mL), single-round pseudovirus neutralization: 6.4 µg/mL
[38]
  IC50: 0.164 µg/mL
[39]
  IC50: 0.69 µg/mL

## 5141_B17 (PGT-126) (antibody)
[23]
  IC50: 0.0046 µg/mL
  IC80: 0.0168 µg/mL
  IC90: 0.0359 µg/mL
  IC95: 0.0728 µg/mL
[24]
  IC50: 1.14 µg/mL
  IC80: > 10 µg/mL
  IC90: > 10 µg/mL
  IC95: > 10 µg/mL

## PGT-122 (antibody)
[2]
  Fold IC50 increase relative to wild-type: 0.5 fold
[3]
  Fold IC50 increase relative to wild-type: 0.4 fold
[4]
  Fold IC50 increase relative to wild-type: 0.8 fold
[5]
  Fold IC50 increase relative to wild-type: > 200 fold
[6]
  Fold IC50 increase relative to wild-type: 0.6 fold
[7]
  Fold IC50 increase relative to wild-type: 2.5 fold
[8]
  Fold IC50 increase relative to wild-type: 3.5 fold
[9]
  Fold IC50 increase relative to wild-type: 1 fold
[10]
  Fold IC50 increase relative to wild-type: 2.2 fold
[11]
  Fold IC50 increase relative to wild-type: 0.5 fold
[12]
  Fold IC50 increase relative to wild-type: 0.4 fold
[13]
  Fold IC50 increase relative to wild-type: 0.5 fold
[14]
  Fold IC50 increase relative to wild-type: 1.7 fold
[15]
  Fold IC50 increase relative to wild-type: 0.5 fold
[16]
  Fold IC50 increase relative to wild-type: 0.5 fold
[17]
  Fold IC50 increase relative to wild-type: 1.3 fold
[18]
  Fold IC50 increase relative to wild-type: 1.2 fold
[19]
  Fold IC50 increase relative to wild-type: > 50 fold
[20]
  Fold IC50 increase relative to wild-type: 0.5 fold
[21]
  Fold IC50 increase relative to wild-type: 2.6 fold
[22]
  Fold IC50 increase relative to wild-type: 12.5 fold

## PGV04 (antibody)
[40]
  IC50 (µg/mL), pseudovirus neutralization: 1.03 µg/mL
[25]
  IC50, pseudovirus neutralization: 0.047 µg/mL
[26]
  IC50, pseudovirus neutralization: 24.2 µg/mL
[27]
  IC50, pseudovirus neutralization: 0.744 µg/mL
[28]
  IC50: 0.055 µg/mL
[29]
  IC50 (µg/mL), pseudovirus neutralization: 0.303 µg/mL
[30]
  IC50 (µg/mL), pseudovirus neutralization: 0.11 µg/mL
[31]
  IC50, pseudovirus neutralization: 0.139 µg/mL
[32]
  IC50: 0.038 µg/mL
[33]
  IC50 (µg/mL), single-round pseudovirus neutralization: 0.027 µg/mL
[35]
  IC50, pseudovirus neutralization: 0.164 µg/mL
[36]
  IC50 (µg/mL), pseudovirus neutralization: > 50 µg/mL
[37]
  IC50 (µg/mL), single-round pseudovirus neutralization: 5.99 µg/mL
[41]
  IC50 (µg/mL), pseudovirus neutralization: 1.56 µg/mL
[38]
  IC50: 0.14 µg/mL
[39]
  IC50: 0.54 µg/mL

## 1443_C16 (PG16) (TCN-116) (antibody)
[1]
  IC90 (pseudovirus neutralization): > 50 µg/mL
[34]
  IC50 (ug/ml), neutralization: 0.004 µg/mL

## VRC01 (antibody)
[40]
  IC50, pseudovirus neutralization: 1.11 µg/mL
[41]
  IC50, pseudovirus neutralization: 3.22 µg/mL
